PMC3330151
Read-outs that look alike come from different tables or passages of the source.

B1: dT52 (ssDNA)
DNA: TTTTTTTTTTTTTTTTTTTTTTTTTTTTTTTTTTTTTTTTTTTTTTTTTTTT
B2: dT25 (ssDNA)
DNA: TTTTTTTTTTTTTTTTTTTTTTTTT
B3: dT6 (ssDNA)
DNA: TTTTTT

Legend:
Assay in all cases: EMSA
RecQ helicase [1] = molecular target: T1, RecQ helicase (Escherichia coli, UniProt P15043 1-609)
RecQ helicase [2] = molecular target: T1, RecQ helicase; remark: listed apart in the source
RecQ helicase [3] = molecular target: T1, RecQ helicase; remark: listed apart in the source

T1 sequence (P15043 whole entry): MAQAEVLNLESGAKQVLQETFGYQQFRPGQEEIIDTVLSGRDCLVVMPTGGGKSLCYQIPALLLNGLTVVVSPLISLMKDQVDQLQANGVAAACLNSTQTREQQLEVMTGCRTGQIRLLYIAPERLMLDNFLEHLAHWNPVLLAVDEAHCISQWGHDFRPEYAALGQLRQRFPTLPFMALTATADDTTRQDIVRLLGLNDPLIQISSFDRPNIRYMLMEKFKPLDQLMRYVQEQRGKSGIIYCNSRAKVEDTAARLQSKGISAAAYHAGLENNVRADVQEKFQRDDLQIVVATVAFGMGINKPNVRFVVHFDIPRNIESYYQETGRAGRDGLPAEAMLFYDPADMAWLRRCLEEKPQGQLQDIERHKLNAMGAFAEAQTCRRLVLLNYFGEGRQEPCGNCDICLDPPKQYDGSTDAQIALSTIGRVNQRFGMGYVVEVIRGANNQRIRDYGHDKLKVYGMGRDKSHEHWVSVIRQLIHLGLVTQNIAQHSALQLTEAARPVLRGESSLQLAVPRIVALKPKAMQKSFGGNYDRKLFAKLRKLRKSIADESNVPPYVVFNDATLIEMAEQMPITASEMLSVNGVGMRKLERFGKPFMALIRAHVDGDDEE

| Binder | Kd (RecQ helicase [1]) [nM] | Kd (RecQ helicase [2]) [nM] | binding result (RecQ helicase [3]) |
| --- | --- | --- | --- |
| B1 | 150 ± 20 | 170 ± 10 | – |
| B2 | 400 ± 60 | 1000 ± 100 | – |
| B3 | – | – | no binding |
